Experimental data reported in US20240165165A1, “PHARMACEUTICAL COMPOSITIONS AND THEIR METHODS OF USE” (The Trustees of Indiana University, priority 2021, published 2024).

Tests used:
[1] = test system: 4T1.2 mammary tumor cells; assay: MTT viability assay; format: cell-based, mouse
Source text: (§1) In vitro assays. Cellular viability was examined using an MTT assay (Invitrogen, Carlsbad, CA, USA) with the procedure previously described, as well as an EdU assay with a fluorescence-based cell proliferation kit (Thermo-Fisher, Waltham, MA, USA). The recombinant proteins employed included Filamin A, Pkm, Pdia3, Tpm4, Anxa2, Eef1a1, Cts1, Nme2, Dcn, Calr, Aldoa, Calm1, Tpm3, Ppib, Myh9, Ywhae, Hspa5, Hsp90aa1 (MBS962910, MBS8249600, MBS2010131, MBS145304, MBS2009095, MBS2033168, MBS143355, MBS145412, MBS2557309, MBS2009125, MBS8248528, MBS2018713, MBS144696, MBS2009092, MBS717396, MBS143242, MBS806904, MBS142709; MyBioSource, San Diego, CA, USA), Actin Gamma 1, Actn4, Hspa8, Vimentin (H00000071-P01, H00000081-P01, NBP1-30278, NBP2-35139; Novus, Littleton, CO, USA), and Hsp90ab1 (OPCA05157; Aviva system biology, San Diego, CA, USA). A TRANSWELL® chamber assay was conducted to detect invasive cellular motility, and a wound-healing scratch assay was utilized to evaluate 2-dimensional migratory behavior. The overexpression of Akt, Lrp5, β-catenin, Snail, Calr, and Ppib was conducted by transfecting plasmids (#10841, #115907, #31785, #31697, #51161, #36123; Addgene, Cambridge, MA, USA). […]

EO771 cells = assay: Western blot of proteins in treated tumor cells; format: cell-based, mouse
Protocol: Western blot analysis and mass spectrometry. Western blot analysis was conducted using known procedures. Antibodies were used against ANXA1, β-catenin, caspase 3, Lrp5, Lrp6, Runx2, Sclerostin, Snail, TGFβ, NFATc1, cathepsin K (Cell Signaling, Danvers, MA, USA), DMP1, ANXA6, CXCL5 (Abcam, Cambridge, MA, USA), M-CSF, MMP9, OPN, TPM4 (Santa Cruz, Dallas, TX, USA), WISP1 (R&D systems, Minneapolis, MN, USA), β-actin (Sigma, Saint Louis, MO, USA), LIMA1, Trail (Novus, Centennial, CO, USA), p53 and CXCL1 (Invitrogen, Carlsbad, California, USA), and DSP (ProteinTech, Rosemont, IL, USA). The expression levels of Sclerostin and Lrp5 in CM were detected by ELISA (My BioSource, San Diego, CA, USA). Proteins from A5 osteocyte CM, Y4 osteocyte CM, and osteoclast control CM (RAW264.7 cells) were analyzed by the HF Hybrid Quadrupole Orbitrap mass spectrometry. Among 549 identified proteins, 49 proteins presented higher expression levels in A5 CM than Y4 CM and control CM. Among them, 11 proteins (p53; SPARC=osteonectin; TPM1, TPM4=tropomyosin 1 & 4; ANXA1, ANXA6=annexin A1 & A6; FMOD=fibromodulin; OGN=osteoglycin; DSP=desmoplakin; AHNAK=desmoyokin; and LIMA1=[…] domain actin-binding protein 1) were identified as potential tumor suppressors.
(§2) Western blot analysis and protein array analysis. Western blot analysis was conducted using the procedure previously described. Antibodies against Lrp5, Runx2, Snail, TGFβ, sclerostin, Calr, p-eIF2α, eIF2α (Cell Signaling, Danvers, MA, USA), LIF, Trail (Novus Biologicals, Centennial, CO, USA), MMP9, NFATc1, cathepsin K (Santa Cruz Biotechnology, Dallas, TX, USA), p53, CXCL2, Ppib (Invitrogen, Carlsbad, CA, USA), Hsp90ab1 (Abcam, Cambridge, UK), and β-actin (Sigma, Saint Louis, MO, USA) were used. A proteome profiler mouse XL cytokine array kit (R&D Systems, Minneapolis, MN, USA) was also employed, and the expression of 111 cytokines and chemokines in MSC-derived CM was determined.
Spheroid assay, plasmid transfection, and Western blot analysis. […]

4T1.2 cells = assay: Western blot of proteins in treated tumor cells; format: cell-based, mouse
Protocol: as §2

[2] = test system: 4T1.2 mammary tumor cells; assay: TRANSWELL invasion assay; format: cell-based, mouse
Source text: as §1

[3] = test system: 4T1.2 mammary tumor cells; assay: EdU proliferation assay; format: cell-based, mouse
Protocol: EdU assay. Approximately 2,000 cells were seeded in 96-well plates on day 1. CM was added on day 2 and cellular proliferation was examined using a fluorescence-based cell proliferation kit (CLICK-IT™ EDU ALEXA FLUOR™ 488 Imaging Kit; Thermo-Fisher, Waltham, MA, USA) on day 4. After fluorescent labeling, the number of fluorescently labeled cells was counted and the ratio to the total number of cells was determined.
as §1, with “USA).” for “USA). A TRANSWELL® chamber assay was conducted to detect invasive cellular motility, and a wound-healing scratch assay was utilized to evaluate 2-dimensional migratory behavior. The overexpression of Akt, Lrp5, β-catenin, Snail, Calr, and Ppib was conducted by transfecting plasmids (#10841, #115907, #31785, #31697, #51161, #36123; Addgene, Cambridge, MA, USA).”

[4] = test system: tumor cells (MDA-MB-231, 4T1.2, EO771) vs non-tumor cells (MSCs, MLO-A5 osteocytes); assay: MTT-based tumor selectivity (MSC CMs, Calr, Ppib); format: cell-based; conditions: (reduction in MTT viability of tumor cells)/(reduction in non-tumor cells)
Protocol: Tumor-selective inhibition by MSC CMs and Calr. […] The inhibitory ratio was defined sing MTT-based viability as (reduction in MTT-based viability of tumor cells)/(reduction in MTT-based viability of non-tumor cells). […] Using three tumor cells (MDA-MB-231, 4T1.2, and EO771) and two non-tumor cells (MSCs, and MLO-A5 osteocytes), tumor selectivity for Lrp5 CM, Akt CM, Calr, and Ppib (FIG. 22) was determined. […] Akt CM also presented the tumor selectivity of 2.41±0.70.

B1: HSF1: HSF1 recombinant proteins (protein, UniProt P38532 1-525, looked up)
Heat shock factor protein 1: MDLAVGPGAAGPSNVPAFLTKLWTLVSDPDTDALICWSPSGNSFHVFDQGQFAKEVLPKYFKHNNMASFVRQLNMYGFRKVVHIEQGGLVKPERDDTEFQHPCFLRGQEQLLENIKRKVTSVSTLKSEDIKIRQDSVTRLLTDVQLMKGKQECMDSKLLAMKHENEALWREVASLRQKHAQQQKVVNKLIQFLISLVQSNRILGVKRKIPLMLSDSNSAHSVPKYGRQYSLEHVHGPGPYSAPSPAYSSSSLYSSDAVTSSGPIISDITELAPTSPLASPGRSIDERPLSSSTLVRVKQEPPSPPHSPRVLEASPGRPSSMDTPLSPTAFIDSILRESEPTPAASNTAPMDTTGAQAPALPTPSTPEKCLSVACLDKNELSDHLDAMDSNLDNLQTMLTSHGFSVDTSALLDLFSPSVTMPDMSLPDLDSSLASIQELLSPQEPPRPIEAENSNPDSGKQLVHYTAQPLFLLDPDAVDTGSSELPVLFELGESSYFSEGDDYTDDPTISLLTGTEPHKAKDPTVS
- MTT-based viability of 4T1.2 cells [1]: reduced

B2: CXCL5: chemokine applied to EO771 cells (protein, UniProt P50228 41-132, looked up)
C-X-C motif chemokine 5: APSSVIAATELRCVCLTVTPKINPKLIANLEVIPAGPQCPTVEVIAKLKNQKEVCLDPEAPVIKKIIQKILGSDKKKAKRNALAVERTASVQ
- tumor-promoting/tumorigenic proteins (Lrp5, MMP9, Runx2, TGFβ, Snail, IL1β etc.) in EO771 cells (EO771 cells): increased

B3: ANXA6: annexin A6 (protein, UniProt P14824 2-673, looked up)
Annexin A6: AKIAQGAMYRGSVHDFPEFDANQDAEALYTAMKGFGSDKESILELITSRSNKQRQEICQNYKSLYGKDLIEDLKYELTGKFERLIVNLMRPLAYCDAKEIKDAISGVGTDEKCLIEILASRTNEQMHQLVAAYKDAYERDLESDIIGDTSGHFQKMLVVLLQGTRENDDVVSEDLVQQDVQDLYEAGELKWGTDEAQFIYILGNRSKQHLRLVFDEYLKTTGKPIEASIRGELSGDFEKLMLAVVKCIRSTPEYFAERLFKAMKGLGTRDNTLIRIMVSRSELDMLDIREIFRTKYEKSLYSMIKNDTSGEYKKALLKLCGGDDDAAGQFFPEAAQVAYQMWELSAVSRVELKGTVCAANDFNPDADAKALRKAMKGIGTDEATIIDIVTHRSNAQRQQIRQTFKSHFGRDLMADLKSEISGDLARLILGLMMPPAHYDAKQLKKAMEGAGTDEKTLIEILATRTNAEIRAINEAYKEDYHKSLEDALSSDTSGHFRRILISLATGNREEGGENRDQAQEDAQVAAEILEIADTPSGDKTSLETRFMTVLCTRSYPHLRRVFQEFIKKTNYDIEHVIKKEMSGDVKDAFVAIVQSVKNKPLFFADKLYKSMKGAGTDEKTLTRVMVSRSEIDLLNIRREFIEKYDKSLHQAIEGDTSGDFMKALLALCGGED
- tumor-promoting/tumorigenic proteins (Lrp5, MMP9, Runx2, TGFβ, Snail, IL1β etc.) in EO771 cells (EO771 cells): reduced

B4: Calr: recombinant calreticulin (protein, UniProt P14211 18-416, looked up)
Calreticulin: DPAIYFKEQFLDGDAWTNRWVESKHKSDFGKFVLSSGKFYGDLEKDKGLQTSQDARFYALSAKFEPFSNKGQTLVVQFTVKHEQNIDCGGGYVKLFPSGLDQKDMHGDSEYNIMFGPDICGPGTKKVHVIFNYKGKNVLINKDIRCKDDEFTHLYTLIVRPDNTYEVKIDNSQVESGSLEDDWDFLPPKKIKDPDAAKPEDWDERAKIDDPTDSKPEDWDKPEHIPDPDAKKPEDWDEEMDGEWEPPVIQNPEYKGEWKPRQIDNPDYKGTWIHPEIDNPEYSPDANIYAYDSFAVLGLDLWQVKSGTIFDNFLITNDEAYAEEFGNETWGVTKAAEKQMKDKQDEEQRLKEEEEDKKRKEEEEAEDKEDDDDRDEDEDEEDEKEEDEEESPGQAKDEL
- phosphorylation level of eIF2α in 4T1.2 cells (4T1.2 cells): elevated
- tumor-promoting genes (Lrp5, MMP9, Runx2, TGFβ, Snail) in 4T1.2 cells (4T1.2 cells; Western blot): suppressed
- TRANSWELL invasion of 4T1.2 cells [2]: significantly inhibited
- EdU-based proliferation of 4T1.2 cells [3]: significantly inhibited
- MTT-based viability of 4T1.2 cells [1]: Significant reduction
- tumor selectivity [4]: higher tumor selectivity than Ppib
